# According to doi:10.1101/775726, “How the dual PDZ domain from Postsynaptic density protein 95 clusters ion channels and receptors” (bioRxiv, 2019):
# Columns and labels:
# Test in all cases: ITC; 5 mM RRESEI in the syringe, PDZ1-2, PDZ1 or PDZ2 in the cell at nominal 0.13 mM; 25°C; 20 mM Tris-HCl, 150 mM NaCl, pH8.5; MicroCal VP-ITC; PDZ1-2 fitted assuming a single class of sites
# Conditions in all cases: both partners purified
# [1] = target: T1, PSD-95 PDZ1-2 dual domain (residues 55-249) (human, UniProt P78352 55-249)
# T1 construct: PSD-95 (Disks large homologue 4, SAP-90), human, residues 55-249 of UniProt P78352 [98-292 of P78352-2]; PDZ1, 8-residue linker, PDZ2; cleaved construct 20.8 kDa; ends printed as NGT- and -SNA; Vector pOPINF; SASBDB entries: apo SASDGE5, SASDGF5, SASDGG5; with GSH SASDGH5, SASDGJ5, SASDGK5; also called apo:PDZ1-2; dual PDZ domain; source: E. coli BL21(DE3), purified (Ni-NTA, HRV 3C tag cleavage, …)
# [2] = target: T2, PSD-95 PDZ1 domain (residues 55-152) (human, UniProt P78352 55-152)
# T2 construct: Gly-Pro left at the N-terminus after HRV 3C cleavage of the tag; PSD-95, human, PDZ1, residues 55-152 of UniProt P78352 [98-195 of P78352-2]; Vector pOPINF; source: E. coli BL21(DE3), purified (Ni-NTA, HRV 3C tag cleavage, negative Ni-NTA, Superdex200 SEC); not shown: His6, N-terminal, cleaved
# [3] = target: T3, PSD-95 PDZ2 domain (residues 154-249) (human, UniProt P78352 154-249)
# T3 construct: Gly-Pro left at the N-terminus after HRV 3C cleavage of the tag; PSD-95, human, PDZ2, residues 154-249 of UniProt P78352 [197-292 of P78352-2]; Vector pOPINF; source: E. coli BL21(DE3), purified (Ni-NTA, HRV 3C tag cleavage, negative Ni-NTA, Superdex200 SEC); not shown: His6, N-terminal, cleaved
# T3 sequence (P78352 other isoform, or with tags, fused parts or gaps): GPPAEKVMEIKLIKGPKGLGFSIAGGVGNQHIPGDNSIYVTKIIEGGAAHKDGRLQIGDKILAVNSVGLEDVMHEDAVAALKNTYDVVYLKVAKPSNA
# T2 sequence (P78352 other isoform, or with tags, fused parts or gaps): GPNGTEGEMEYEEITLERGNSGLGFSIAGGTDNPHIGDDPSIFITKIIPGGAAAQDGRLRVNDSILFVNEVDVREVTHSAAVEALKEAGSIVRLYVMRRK
# T1 sequence (P78352 other isoform, or with tags, fused parts or gaps): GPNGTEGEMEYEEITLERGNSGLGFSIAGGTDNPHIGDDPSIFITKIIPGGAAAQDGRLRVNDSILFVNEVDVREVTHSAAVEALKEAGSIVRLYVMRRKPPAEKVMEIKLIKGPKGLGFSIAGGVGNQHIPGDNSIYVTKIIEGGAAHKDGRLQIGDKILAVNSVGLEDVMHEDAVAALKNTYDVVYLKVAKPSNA
binder,measurement,setting,value
"RRESEI (last 6 residues of the inwardly rectifying potassium channel Kir2.1 (C-terminus, type I PDZ motif ESEI); also called RRESEI ligand; ligand peptide; source: synthetic peptide, 98% purity (Peptide Protein Research Ltd.)) [RRESEI peptide (last 6 residues of Kir2.1)]",Kd,[1],90 ± 9 µM
same,Kd,[2],6 ± 6 µM
same,Kd,[3],60 ± 2 µM
